Results: publication PMC7382298 (Immunity, 2020)
Positions count from the first letter of the chain named. Numbers in names are those of the source.

Legend:
[1] = target: T1, human GSDMD harboring truncation of residues 243-278 (human, UniProt P57764 1-484, truncation of residues 243-278); test: SEC
T1 sequence (looked up): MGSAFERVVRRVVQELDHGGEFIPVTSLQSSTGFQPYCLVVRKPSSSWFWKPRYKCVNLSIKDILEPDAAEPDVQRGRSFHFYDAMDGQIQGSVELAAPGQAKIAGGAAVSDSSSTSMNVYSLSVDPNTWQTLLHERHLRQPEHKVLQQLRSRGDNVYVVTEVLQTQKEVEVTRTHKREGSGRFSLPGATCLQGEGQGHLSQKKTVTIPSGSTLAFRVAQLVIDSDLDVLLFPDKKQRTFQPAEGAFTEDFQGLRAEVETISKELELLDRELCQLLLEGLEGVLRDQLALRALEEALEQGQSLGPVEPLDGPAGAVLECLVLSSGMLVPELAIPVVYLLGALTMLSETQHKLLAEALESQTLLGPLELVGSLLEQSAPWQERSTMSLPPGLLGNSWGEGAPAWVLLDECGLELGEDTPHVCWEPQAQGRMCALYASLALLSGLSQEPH

[2] = target: T2, mouse full-length wild type gasdermin D (mGSDMD) (mouse, UniProt Q9D8T2 1-487); test: SEC
T2 sequence (looked up): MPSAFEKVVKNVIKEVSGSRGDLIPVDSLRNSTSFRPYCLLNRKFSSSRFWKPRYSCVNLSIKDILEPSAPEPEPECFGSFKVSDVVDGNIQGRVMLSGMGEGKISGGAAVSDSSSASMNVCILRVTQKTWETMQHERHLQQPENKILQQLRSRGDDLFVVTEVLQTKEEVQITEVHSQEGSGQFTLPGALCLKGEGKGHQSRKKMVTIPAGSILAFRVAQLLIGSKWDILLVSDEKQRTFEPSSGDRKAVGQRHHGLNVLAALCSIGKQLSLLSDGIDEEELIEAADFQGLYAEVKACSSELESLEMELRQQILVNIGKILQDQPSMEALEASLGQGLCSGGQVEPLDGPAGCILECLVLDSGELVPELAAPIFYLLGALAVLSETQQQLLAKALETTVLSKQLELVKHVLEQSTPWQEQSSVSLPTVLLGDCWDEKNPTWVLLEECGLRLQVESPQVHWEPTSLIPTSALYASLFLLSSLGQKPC

[3] = target: T3, human full-length wild type gasdermin D (hGSDMD) (human, UniProt P57764 1-484); test: SEC
T3 sequence (looked up): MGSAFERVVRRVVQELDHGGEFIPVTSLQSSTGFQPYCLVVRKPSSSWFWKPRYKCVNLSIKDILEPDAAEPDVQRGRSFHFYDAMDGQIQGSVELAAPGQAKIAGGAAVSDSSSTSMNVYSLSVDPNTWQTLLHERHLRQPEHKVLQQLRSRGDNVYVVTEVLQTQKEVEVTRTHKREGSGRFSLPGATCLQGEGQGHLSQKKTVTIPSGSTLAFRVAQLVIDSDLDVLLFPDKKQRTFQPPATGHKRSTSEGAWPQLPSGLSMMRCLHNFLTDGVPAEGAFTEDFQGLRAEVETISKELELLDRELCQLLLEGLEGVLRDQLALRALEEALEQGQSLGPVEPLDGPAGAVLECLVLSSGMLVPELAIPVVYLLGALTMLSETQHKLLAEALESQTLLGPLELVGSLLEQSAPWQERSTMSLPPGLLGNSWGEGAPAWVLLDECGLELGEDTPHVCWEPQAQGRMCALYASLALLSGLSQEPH

crystal structure = target: the molecule itself; test: crystal structure
[4] = target: T4, GST-Human full-length wild type GSDMD (human, UniProt P57764 1-484); test: pull-down
T4 sequence (looked up): T3 sequence (looked up)

[5] = target: T5, GST-Mouse full-length wild type GSDMD (mouse, UniProt Q9D8T2 1-487); test: pull-down
T5 sequence (looked up): T2 sequence (looked up)

[6] = target: T6, GST-Human GSDMD harboring truncation of residues 243-278 (human, UniProt P57764 1-484, truncation of residues 243-278); test: pull-down
T6 sequence (looked up): T1 sequence (looked up)

[7] = target: T7, GST-Mouse full-length GSDMD harboring L306A/L310A mutations (2A mutant) (mouse, UniProt Q9D8T2 1-487, L306A | L310A); test: pull-down
T7 sequence (looked up): T2 sequence (looked up) with L306A, L310A

[8] = target: T8, GST-Mouse full-length GSDMD harboring V367A/E369K mutations (mouse, UniProt Q9D8T2 1-487, V367A | E369K); test: pull-down
T8 sequence (looked up): T2 sequence (looked up) with V367A, E369K

[9] = target: T9, GST-Mouse full-length GSDMD harboring E369K/L370A mutations (mouse, UniProt Q9D8T2 1-487, E369K | L370A); test: pull-down
T9 sequence (looked up): T2 sequence (looked up) with E369K, L370A

[10] = target: T10, GST-Mouse full-length GSDMD harboring L361A/V367A/L370A mutations (3A mutant) (mouse, UniProt Q9D8T2 1-487, L361A | V367A | L370A); test: pull-down
T10 sequence (looked up): T2 sequence (looked up) with L361A, V367A, L370A

binding result [1]: binds
binding result [2]: binds
binding result [3]: binds
binding result [4]: binds
binding result [5]: binds
binding result [6]: binds
binding result [7]: binds
binding result [8]: binds
binding result [9]: binds
binding result [10]: binds
B1: human caspase-1 (hCASP1) catalytic domain p22/p10, C285A mutant (enzyme)
chain 1: NPAMPTSSGSEGNVKLCSLEEAQRIWKQKSAEIYPIMDKSSRTRLALIICNEEFDSIPRRTGAEVDITGMTMLLQNLGYSVDVKKNLTASDMTTELEAFAHRPEHKTSDSTFLVFMSHGIREGICGKKHSEQVPDILQLNAIFNMLNTKNCPSLKDKPKVIIIQAARGDSPGVVWFKDSVGVSGNLSLPTTEEFEDD
chain 2: AIKKAHIEKDFIAFCSSTPDNVSWRHPTMGSVFIGRLIEHMQEYACSCDVEEIFRKVRFSFEQPDGRAQMPTTERVTLTRCFYLFPGH
binding result (crystal structure): binds
